Experimental data from patent publication US20190202900A1 (INFLARX, published 2019).

Target: T1, human endogenous C5a (eC5a) generated in human zymosan-activated plasma (human, UniProt P01031 678-751)
T1 sequence: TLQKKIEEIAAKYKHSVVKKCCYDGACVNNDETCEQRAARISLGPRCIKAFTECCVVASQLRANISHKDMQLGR
Test: cell-based or functional assay

B1: IFX-1 (antibody, IgG4, V domains shown)
VH: QVQLQQSGPQLVRPGTSVKISCKASGYSFTTFWMDWVKQRPGQGLEWIGRIDPSDSESRLDQRFKDRATLTVDKSSSTVYMQLSSPTSEDSAVYYCARGNDGYYGFAYWGQGTLVTVSS
VL: DIVLTQSPASLAVSLGQRATISCKASQSVDYDGDSYMKWYQQKPGQPPKLLIYAASNLQSGIPARFSGSGSGTDFTLNIHPVEEEDAATYYCQQSNEDPYTFGGGTKLEIK
blocking of eC5a-induced CD11b up-regulation on human granulocytes (ZAP-CD11b assay), Ab:Ag ratios 1:1 and 2:1: ≤ 98%
decrease of CD11b expression on human granulocytes (ZAP-CD11b assay, flow cytometry MFI), Ab:Ag molar ratio 0.5:1: > 80%
